{"source": "patent US20230266303A1", "about": "“SYSTEM” (GTINVENT LIMITED, priority 2020, published 2023)", "key": {"dSH-SY5Y cells [1]": {"system": "dSH-SY5Y cells", "assay": "Internalisation of dGAE-488 into cells by confocal microscopy", "type": "cell-based, human", "details": "soluble form, 5 μM dGAE-488, live confocal imaging t=0 h to 14 h", "method": "(§1) Undifferentiated SH-SY5Y human neuroblastoma cells were grown in Dulbecco's Modified Eagle Medium/Nutrient Mixture F-12 (DMEM/F-12) supplemented with 10% Foetal Calf Serum (FCS), 1% Penicillin/Streptomycin (P/S) and 1% L-glutamine. For differentiation, SH-SY5Y cells were plated at a density of 50,000 cells per well in 24-well plates or 300,000 cells per well in 6-well plates. For immunofluorescence, cells were plated onto Menzel-Gläser coverslips (Thermo Scientific). For live-cell imaging, cells were plated on 35-mm dishes on a 1.5-mm coverslip (Mattek). On the first day of differentiation, media was replaced with low-serum culture media (DMEM/F-12 containing 1% FCS, 1% P/S and 1% L-glutamine) containing 10 μM all-trans retinoic acid (RA) (Sigma-Aldrich) and cells were incubated for 48 h. On day 3, this process was repeated with fresh RA and cells were incubated for a further 48 h. On day 5, the cells were washed once in serum-free culture media to remove traces of serum. […] Differentiated cells (dSH-SY5Y) were ready to use for experiments on day 7. […]\nFIJI (https://fiji.sc) imaging processing package (J. Schindelin et al., Nat. Methods, vol. 9, no. 7, pp. 676-682, (2012)) was used for all image analysis. For quantification of fluorescence intensities, images were Z-projected to maximal intensity. […] Area-integrated intensity and mean grey value were measured as well as three selections from around the cell with no fluorescence (background). The corrected total cell fluorescence (CTCF) was then calculated using the equation: […]\nFor quantification of internalised dGAE-488, a focal plane from the middle of the cell that contained maximal DAPI fluorescence was selected and subjected to analysis.\nThe uptake of soluble and aggregated dGAE into dSH-SY5Y cells was investigated in order to examine whether aggregation state affects the efficiency of internalisation. The labelled dGAE-488 form was used to permit uptake to be visualised and measured having corrected for total cell fluorescence. […]"}, "dSH-SY5Y cells [2]": {"system": "dSH-SY5Y cells", "assay": "ReadyProbes cell viability assay (cell death) after exposure to dGAE", "type": "cell-based", "details": "24 h incubation; for percentage cell death: 1 μM, buffer only 21.6±1.6%", "method": "as §1\nFollowing the addition of dGAE, cell viability was measured using ReadyProbes® Cell Viability Imaging Kit (Life Technologies). […] DAPI fluorescence was captured using a G 365 excitation filter and a LP 420 emission filter with a FT 395 dichroic. Green fluorescence was captured using a FITC filter set (BP 450-490 excitation filter, BP 515-565 emission filter and FT 510 dichroic). Identical acquisition settings were used for all replicates and images were analysed using FIJI. Six fields of view were taken per sample and an average of 4500 cells were analysed per condition. The proportion of buffer-treated cell death was quantified by converting the images to grayscale followed by manually adjusting the threshold and converting it into a binary image to highlight live DAPI-stained cells. The number of cells was automatically counted. The dead cells were counted in the same way and cell death was expressed as a percentage of buffer-treated cells. […]"}}, "data": [{"substance": "dGAE: recombinant truncated tau, 95 residues fragment of Tau (2N4R), Ile-297 to Glu-391, SEQ ID NO: 4", "values": [{"measurement": "incubation time at which internalised protein is detected in cells", "setting": "dSH-SY5Y cells [1]", "value": "≤ 2", "unit": "h"}, {"measurement": "percentage cell death", "setting": "dSH-SY5Y cells [2]; aggregated dGAE (100 μM agitated 72 h)", "value": "34±2.9", "unit": "%"}, {"measurement": "percentage cell death", "setting": "dSH-SY5Y cells [2]; soluble dGAE (0 h, no agitation)", "value": "24.1±1.2", "unit": "%"}, {"measurement": "cell death on increasing concentration", "setting": "dSH-SY5Y cells [2]; soluble dGAE up to 20 μM", "value": "no further increase in cell death"}]}]}
